Source: PMC5571939, “The nature of the Syntaxin4 C-terminus affects Munc18c-supported SNARE assembly” (PLoS ONE, 2017)

Legend:
Conditions in all cases: both partners purified
[1] = biological target: T1, Munc18c:Sx4_(1-298)-TMD (HL-Munc18c with de-tagged full-length Sx4, pre-formed) (mouse, UniProt Q60770 1-592; P70452 1-298); experiment: pull-down; beads with pre-formed HL-Munc18c/Sx4 binary complexes incubated with SNAP23 (100 μg, 21.7 μM) and VAMP2 (80 μg, 31.7 μM) together, overnight, 4°C; SDS-PAGE, Coomassie
T1 construct: Munc18c (Munc18-3), mouse; as m12; Syntaxin4 (Sx4) with its C-terminal transmembrane domain, mouse, amino acids 1-298; as m6; also called HL-Munc18c/Sx4 binary complex; source: formed on TALON Co2+ beads from purified E. coli proteins; not shown: His6 with long linker ([residues removed]), N-terminal, kept; His6, N-terminal, cleaved
T1 sequence (looked up) 1: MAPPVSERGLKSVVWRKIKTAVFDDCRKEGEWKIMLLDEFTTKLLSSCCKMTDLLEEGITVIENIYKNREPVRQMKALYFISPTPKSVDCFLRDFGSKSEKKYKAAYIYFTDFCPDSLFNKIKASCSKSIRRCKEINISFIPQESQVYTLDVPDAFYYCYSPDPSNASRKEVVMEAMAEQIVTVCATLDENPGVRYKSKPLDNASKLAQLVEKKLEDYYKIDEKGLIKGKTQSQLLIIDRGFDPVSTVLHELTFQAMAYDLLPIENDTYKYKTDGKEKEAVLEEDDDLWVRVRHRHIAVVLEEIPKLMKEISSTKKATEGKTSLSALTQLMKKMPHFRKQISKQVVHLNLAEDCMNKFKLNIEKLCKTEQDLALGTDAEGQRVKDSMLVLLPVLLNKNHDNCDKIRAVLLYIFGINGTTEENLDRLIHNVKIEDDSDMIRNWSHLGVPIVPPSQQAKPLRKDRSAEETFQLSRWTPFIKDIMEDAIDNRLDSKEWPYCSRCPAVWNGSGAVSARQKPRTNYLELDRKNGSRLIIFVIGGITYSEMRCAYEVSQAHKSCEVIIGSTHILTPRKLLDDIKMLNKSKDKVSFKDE
T1 sequence (looked up) 2: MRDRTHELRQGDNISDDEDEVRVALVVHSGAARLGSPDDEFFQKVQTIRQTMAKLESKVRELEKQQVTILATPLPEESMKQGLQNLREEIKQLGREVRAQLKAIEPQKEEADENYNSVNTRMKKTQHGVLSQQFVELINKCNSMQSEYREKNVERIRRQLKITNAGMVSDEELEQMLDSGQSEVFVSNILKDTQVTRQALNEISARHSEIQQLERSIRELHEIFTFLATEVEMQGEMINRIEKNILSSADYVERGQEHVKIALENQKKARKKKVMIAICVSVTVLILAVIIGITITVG

[2] = biological target: T2, Munc18c:Sx4_(1-275)-His pre-formed complex (rat | mouse, UniProt Q08850 1-275; Q60770 1-592, C141S); experiment: pull-down; Sx4-His proteins immobilised by C-terminal His6 on Co2+ resin, pre-complexed with de-tagged Munc18c or without it (controls); GST-cleaved SNAP23 and VAMP2 (40 μg) added together, overnight, 4°C; SDS-PAGE, Coomassie
T2 construct: as m1; Munc18c (Munc18-3), mouse; as m10; m1 immobilised by its C-terminal His6 and complexed with m10 before SNAP23 and VAMP2 were added; also called Munc18c/Sx4-His; source: formed on TALON Co2+ beads from purified E. coli proteins; not shown: His6, C-terminal, kept; His6, N-terminal, cleaved
T2 sequence (looked up) 1: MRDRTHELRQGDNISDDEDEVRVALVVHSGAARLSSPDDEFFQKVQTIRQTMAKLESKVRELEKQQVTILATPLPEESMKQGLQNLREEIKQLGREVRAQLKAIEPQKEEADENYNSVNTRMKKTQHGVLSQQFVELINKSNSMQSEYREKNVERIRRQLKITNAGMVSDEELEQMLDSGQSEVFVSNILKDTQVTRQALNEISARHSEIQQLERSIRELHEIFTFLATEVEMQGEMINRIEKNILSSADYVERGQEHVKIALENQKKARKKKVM
T2 sequence (looked up) 2: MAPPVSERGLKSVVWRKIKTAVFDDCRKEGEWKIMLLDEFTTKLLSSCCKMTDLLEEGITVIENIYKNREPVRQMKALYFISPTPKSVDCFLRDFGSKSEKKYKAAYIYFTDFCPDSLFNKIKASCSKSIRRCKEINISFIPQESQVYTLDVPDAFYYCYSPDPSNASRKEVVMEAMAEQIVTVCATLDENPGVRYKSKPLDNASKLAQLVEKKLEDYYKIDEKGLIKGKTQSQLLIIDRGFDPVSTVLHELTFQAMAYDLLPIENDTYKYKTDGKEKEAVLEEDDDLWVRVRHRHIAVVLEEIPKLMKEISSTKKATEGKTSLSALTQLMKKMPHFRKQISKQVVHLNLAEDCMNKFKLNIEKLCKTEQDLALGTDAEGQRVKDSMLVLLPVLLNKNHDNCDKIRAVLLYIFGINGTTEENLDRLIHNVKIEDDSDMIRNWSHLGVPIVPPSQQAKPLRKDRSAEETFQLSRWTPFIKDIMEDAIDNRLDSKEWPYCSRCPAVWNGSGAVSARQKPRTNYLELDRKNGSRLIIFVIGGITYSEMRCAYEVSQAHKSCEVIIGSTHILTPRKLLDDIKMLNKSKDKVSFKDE

Sx4_(1-275)-His = biological target: T3, Sx4_(1-275)-His (rat, UniProt Q08850 1-275, C141S); experiment: as above
T3 construct: also called Syntaxin4 soluble cytoplasmic domain with C-terminal His6; source: E. coli, purified as described previously [17, 28]; not shown: His6, C-terminal, kept
T3 sequence (looked up): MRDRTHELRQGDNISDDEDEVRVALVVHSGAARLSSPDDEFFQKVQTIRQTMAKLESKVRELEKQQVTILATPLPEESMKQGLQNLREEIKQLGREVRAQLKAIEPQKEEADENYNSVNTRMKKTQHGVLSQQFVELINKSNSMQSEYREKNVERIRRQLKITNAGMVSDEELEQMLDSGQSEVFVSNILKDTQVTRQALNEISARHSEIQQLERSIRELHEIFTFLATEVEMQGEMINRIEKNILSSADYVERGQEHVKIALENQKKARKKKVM

HL-Munc18c = biological target: T4, HL-Munc18c (mouse, UniProt Q60770 1-592); experiment: pull-down; HL-Munc18c (20 μg, 1.4 μM) immobilised on TALON Co2+ beads; de-tagged Sx4 proteins (50 μg) added for 4 h (legend: 6 h), washed; binding buffer with 0.1% Triton X-100; SDS-PAGE, Coomassie
T4 construct: Munc18c (Munc18-3), mouse; The linker is said to have 53 amino acids; also called Munc18c with N-terminal His6-tag and long linker; source: E. coli, purified as described previously [39]; not shown: His6 with long linker ([residues removed]), N-terminal, kept
T4 sequence (looked up): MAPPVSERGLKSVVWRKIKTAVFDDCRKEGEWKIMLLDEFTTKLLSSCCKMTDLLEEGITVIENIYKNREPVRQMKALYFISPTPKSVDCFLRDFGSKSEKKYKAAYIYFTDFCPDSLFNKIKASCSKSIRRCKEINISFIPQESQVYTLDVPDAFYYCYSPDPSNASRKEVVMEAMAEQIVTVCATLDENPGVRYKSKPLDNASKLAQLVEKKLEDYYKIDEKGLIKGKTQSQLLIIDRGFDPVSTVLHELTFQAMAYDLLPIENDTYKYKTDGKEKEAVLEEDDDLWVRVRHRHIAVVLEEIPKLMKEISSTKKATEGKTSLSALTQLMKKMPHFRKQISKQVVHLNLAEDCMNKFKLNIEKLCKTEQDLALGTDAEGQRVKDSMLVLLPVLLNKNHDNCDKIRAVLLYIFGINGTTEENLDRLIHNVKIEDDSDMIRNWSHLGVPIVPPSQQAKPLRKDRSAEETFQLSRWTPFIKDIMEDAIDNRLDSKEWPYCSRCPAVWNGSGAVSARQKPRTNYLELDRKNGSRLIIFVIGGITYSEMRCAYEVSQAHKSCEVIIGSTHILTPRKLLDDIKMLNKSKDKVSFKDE

HMunc18c = biological target: T5, HMunc18c (mouse, UniProt Q60770 1-592); experiment: fluorescence polarisation; fluorescence anisotropy kinetics, both in solution: Alexa488-labeled Sx4 (50 nM) with HMunc18c at 100–2500 nM; 25°C; 25 mM HEPES pH 8.0, 200 mM NaCl, 1 mM TCEP, 2% glycerol; global 1:1 fit (Dynafit 4.0)
T5 construct: Munc18c (Munc18-3), mouse; also called Munc18c with an N-terminal His6-tag; source: E. coli, purified as described previously [39]; not shown: His6, N-terminal, kept
T5 sequence (looked up): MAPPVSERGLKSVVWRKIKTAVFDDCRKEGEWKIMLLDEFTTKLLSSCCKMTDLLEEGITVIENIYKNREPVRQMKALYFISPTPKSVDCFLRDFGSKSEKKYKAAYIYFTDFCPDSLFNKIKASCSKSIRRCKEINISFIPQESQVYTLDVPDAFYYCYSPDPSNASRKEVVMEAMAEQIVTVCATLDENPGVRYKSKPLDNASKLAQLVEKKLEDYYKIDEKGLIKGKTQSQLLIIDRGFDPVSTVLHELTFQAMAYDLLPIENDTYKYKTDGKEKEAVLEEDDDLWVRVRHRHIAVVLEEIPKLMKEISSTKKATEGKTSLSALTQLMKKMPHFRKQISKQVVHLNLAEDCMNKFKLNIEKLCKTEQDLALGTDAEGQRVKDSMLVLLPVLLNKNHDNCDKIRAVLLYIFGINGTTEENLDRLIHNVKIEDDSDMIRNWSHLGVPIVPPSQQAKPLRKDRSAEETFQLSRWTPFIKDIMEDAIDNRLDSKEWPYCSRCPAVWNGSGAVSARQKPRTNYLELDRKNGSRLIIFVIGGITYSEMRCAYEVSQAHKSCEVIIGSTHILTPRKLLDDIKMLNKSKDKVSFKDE

B1: SNAP23 (GST-cleaved) (natural protein, mouse, UniProt O09044 1-210, looked up)
chain: MDNLSPEEVQLRAHQVTDESLESTRRILGLAIESQDAGIKTITMLDEQGEQLNRIEEGMDQINKDMREAEKTLTELNKCCGLCICPCNRTKNFESGKNYKATWGDGGDNSPSNVVSKQPSRITNGQPQQTTGAASGGYIKRITNDAREDEMEENLTQVGSILGNLKNMALDMGNEIDAQNQQIQKITEKADTNKNRIDIANTRAKKLIDS
notes: SNAP23, mouse, amino acids 1-210; source: purified (GSH-agarose, thrombin cleavage, MonoQ anion exchange)
B1: binds [1]; binds [2]; binds (Sx4_(1-275)-His).

B2: Sx4_(1-298)-TMD (de-tagged, in detergent micelles) (natural protein, mouse, UniProt P70452 1-298, looked up)
chain: MRDRTHELRQGDNISDDEDEVRVALVVHSGAARLGSPDDEFFQKVQTIRQTMAKLESKVRELEKQQVTILATPLPEESMKQGLQNLREEIKQLGREVRAQLKAIEPQKEEADENYNSVNTRMKKTQHGVLSQQFVELINKCNSMQSEYREKNVERIRRQLKITNAGMVSDEELEQMLDSGQSEVFVSNILKDTQVTRQALNEISARHSEIQQLERSIRELHEIFTFLATEVEMQGEMINRIEKNILSSADYVERGQEHVKIALENQKKARKKKVMIAICVSVTVLILAVIIGITITVG
notes: Syntaxin4 (Sx4) with its C-terminal transmembrane domain, mouse, amino acids 1-298, synthetic gene (GenScript); Mouse, whereas the soluble Sx4 constructs are rat; also called full-length Sx4; HT-Sx4-TMD after TEV cleavage; source: E. coli Lemo21 (DE3), purified in DDM (TALON Co2+ IMAC, TEV cleavage, reverse IMAC); not shown: His6, N-terminal, cleaved
B2: binds (HL-Munc18c).

B3: Alexa488-labeled Sx4_(1-275)-His (native C141) (domain or fragment, rat, UniProt Q08850 1-275, looked up)
chain: MRDRTHELRQGDNISDDEDEVRVALVVHSGAARLSSPDDEFFQKVQTIRQTMAKLESKVRELEKQQVTILATPLPEESMKQGLQNLREEIKQLGREVRAQLKAIEPQKEEADENYNSVNTRMKKTQHGVLSQQFVELINKCNSMQSEYREKNVERIRRQLKITNAGMVSDEELEQMLDSGQSEVFVSNILKDTQVTRQALNEISARHSEIQQLERSIRELHEIFTFLATEVEMQGEMINRIEKNILSSADYVERGQEHVKIALENQKKARKKKVM
modifications: Alexa Fluor 488 C5 maleimide on cysteine (native C141 rather than C141S)
notes: Degree of labeling greater than 90%; not shown: His6, C-terminal, kept
B3 was tested, and the Kd (HMunc18c) was 502 nM, the koff (HMunc18c) was 0.000653 s⁻¹ and the kon (HMunc18c) was 1300 M⁻¹ s⁻¹.
